Laboratory results: article PMC5580921, “Homeodomain-like DNA binding proteins control the haploid-to-diploid transition in Dictyostelium”

Assays:
MatB S71A [1] = molecular target: T1, MatB S71A (Dictyostelium discoideum, UniProt D3UFE5 1-107, S71A); assay: NMR; 80 uM DNA, 20 uM protein, 1 C; core signals lost by intermediate exchange broadening; EMSA: 10 mM Tris-HCl pH 7.4, 1 mM EDTA, 20 mM NaCl, 30 min room temperature, 6% polyacrylamide gel in 1x tris-borate. NMR: 25 mM phosphate pH 6, 50 mM NaCl, 50; conditions: protein: recombinant; tags: His6-lipoyl domain tag removed by TEV (15N-labeled for NMR); label: none; blunt
T1 sequence: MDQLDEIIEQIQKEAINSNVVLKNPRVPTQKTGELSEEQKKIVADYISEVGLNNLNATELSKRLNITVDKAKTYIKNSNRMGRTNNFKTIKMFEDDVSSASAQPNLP

MatA [2] = molecular target: T2, MatA (Dictyostelium discoideum, UniProt Q54HW9 1-107); assay: NMR; 80 uM DNA, 20 uM MatA; CSPs at L32, L35, E69, I75, K76, N77; EMSA: 10 mM Tris-HCl pH 7.4, 1 mM EDTA, 20 mM NaCl, 30 min room temperature, 6% polyacrylamide gel in 1x tris-borate. NMR: 25 mM phosphate pH 6, 50 mM NaCl, 50; conditions: protein: recombinant; tags: His6-lipoyl domain tag removed by TEV (15N-labeled for NMR); label: none; blunt
T2 sequence: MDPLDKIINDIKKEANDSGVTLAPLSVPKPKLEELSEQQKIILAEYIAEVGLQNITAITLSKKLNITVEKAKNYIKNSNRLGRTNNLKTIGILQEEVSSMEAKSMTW

MatA [3] = molecular target: T2, MatA; assay: NMR; 58-bp titration 40-120 uM DNA, 20 uM MatA; fast exchange, very weak, unsaturated; EMSA: 10 mM Tris-HCl pH 7.4, 1 mM EDTA, 20 mM NaCl, 30 min room temperature, 6% polyacrylamide gel in 1x tris-borate. NMR: 25 mM phosphate pH 6, 50 mM NaCl, 50; conditions: protein: recombinant; tags: His6-lipoyl domain tag removed by TEV (15N-labeled for NMR); label: none; blunt
MatB = molecular target: T3, MatB (Dictyostelium discoideum, UniProt D3UFE5 1-107); assay: EMSA; nonspecific; EMSA: 10 mM Tris-HCl pH 7.4, 1 mM EDTA, 20 mM NaCl, 30 min room temperature, 6% polyacrylamide gel in 1x tris-borate. NMR: 25 mM phosphate pH 6, 50 mM NaCl, 50; conditions: protein: recombinant; tags: His6-lipoyl domain tag removed by TEV; label: none (SYBR Gold stain); blunt
T3 sequence: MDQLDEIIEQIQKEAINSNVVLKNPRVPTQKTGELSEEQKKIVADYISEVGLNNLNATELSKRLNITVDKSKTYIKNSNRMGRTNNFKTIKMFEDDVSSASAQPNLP

MatB S71A [4] = molecular target: T1, MatB S71A; assay: EMSA; similar to wild type; EMSA: 10 mM Tris-HCl pH 7.4, 1 mM EDTA, 20 mM NaCl, 30 min room temperature, 6% polyacrylamide gel in 1x tris-borate. NMR: 25 mM phosphate pH 6, 50 mM NaCl, 50; conditions: protein: recombinant; tags: His6-lipoyl domain tag removed by TEV (15N-labeled for NMR); label: none (SYBR Gold stain); blunt
MatA K72A/K76A = molecular target: T4, MatA K72A/K76A (Dictyostelium discoideum, UniProt D3UFF3 1-107, K72A;K76A); assay: EMSA; EMSA: 10 mM Tris-HCl pH 7.4, 1 mM EDTA, 20 mM NaCl, 30 min room temperature, 6% polyacrylamide gel in 1x tris-borate. NMR: 25 mM phosphate pH 6, 50 mM NaCl, 50; conditions: protein: recombinant; tags: His6-lipoyl domain tag removed by TEV; label: none (SYBR Gold stain); blunt
T4 sequence: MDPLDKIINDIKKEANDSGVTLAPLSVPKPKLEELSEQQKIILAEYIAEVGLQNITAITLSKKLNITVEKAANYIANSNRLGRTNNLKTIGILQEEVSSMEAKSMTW

MatA [5] = molecular target: T2, MatA; assay: EMSA; smear; nonspecific, low affinity; EMSA: 10 mM Tris-HCl pH 7.4, 1 mM EDTA, 20 mM NaCl, 30 min room temperature, 6% polyacrylamide gel in 1x tris-borate. NMR: 25 mM phosphate pH 6, 50 mM NaCl, 50; conditions: protein: recombinant; tags: His6-lipoyl domain tag removed by TEV (15N-labeled for NMR); label: none (SYBR Gold stain); blunt

B1: 29-bp DNA (dsDNA)
DNA 1: CCGAAACGTTTGGTGGCGGGACCAGTGAC
DNA 2: GTCACTGGTCCCGCCACCAAACGTTTCGG
Question: Does B1 bind (MatB S71A [1])?
Answer: binds

Question: Does B1 bind (MatA [2])?
Answer: binds

B2: 58-bp DNA (dsDNA)
DNA 1: GAATCTTGCACGCCCTCGCTCAAGCCTTCGTCACTGGTCCCGCCACCAAACGTTTCGG
DNA 2: CCGAAACGTTTGGTGGCGGGACCAGTGACGAAGGCTTGAGCGAGGGCGTGCAAGATTC
Question: Does B2 bind (MatA [3])?
Answer: binds

B3: EMSA dsDNA with MATalpha2 operator (dsDNA)
DNA 1: CCGAAACGTTTGGTGGCGCATGTAATTCATTTACACGCGCGAGGGCGTGCAAGATTC
DNA 2: GAATCTTGCACGCCCTCGCGCGTGTAAATGAATTACATGCGCCACCAAACGTTTCGG
Question: Does B3 bind (MatB)?
Answer: binds

Question: Does B3 bind (MatB S71A [4])?
Answer: binds

Question: Does B3 bind (MatA K72A/K76A)?
Answer: no binding

Question: Does B3 bind (MatA [5])?
Answer: binds
